Test results as given in patent US20250099622A1, “COMPOSITIONS AND METHODS FOR EXPRESSING THERAPEUTICS” (priority 2022, published 2025).

Target: T1, NPR-B receptor positive cell line, NIH/3T3 (Mus musculus, UniProt Q6VVW5)
T1 construct: natrieuretic peptide type C receptor B (NPR-B) positive cell line, NIH/3T3 and the negative cell line of HEK293 cells; endogenous in cells; host or cells: NIH/3T3
T1 sequence (Q6VVW5 17-1047): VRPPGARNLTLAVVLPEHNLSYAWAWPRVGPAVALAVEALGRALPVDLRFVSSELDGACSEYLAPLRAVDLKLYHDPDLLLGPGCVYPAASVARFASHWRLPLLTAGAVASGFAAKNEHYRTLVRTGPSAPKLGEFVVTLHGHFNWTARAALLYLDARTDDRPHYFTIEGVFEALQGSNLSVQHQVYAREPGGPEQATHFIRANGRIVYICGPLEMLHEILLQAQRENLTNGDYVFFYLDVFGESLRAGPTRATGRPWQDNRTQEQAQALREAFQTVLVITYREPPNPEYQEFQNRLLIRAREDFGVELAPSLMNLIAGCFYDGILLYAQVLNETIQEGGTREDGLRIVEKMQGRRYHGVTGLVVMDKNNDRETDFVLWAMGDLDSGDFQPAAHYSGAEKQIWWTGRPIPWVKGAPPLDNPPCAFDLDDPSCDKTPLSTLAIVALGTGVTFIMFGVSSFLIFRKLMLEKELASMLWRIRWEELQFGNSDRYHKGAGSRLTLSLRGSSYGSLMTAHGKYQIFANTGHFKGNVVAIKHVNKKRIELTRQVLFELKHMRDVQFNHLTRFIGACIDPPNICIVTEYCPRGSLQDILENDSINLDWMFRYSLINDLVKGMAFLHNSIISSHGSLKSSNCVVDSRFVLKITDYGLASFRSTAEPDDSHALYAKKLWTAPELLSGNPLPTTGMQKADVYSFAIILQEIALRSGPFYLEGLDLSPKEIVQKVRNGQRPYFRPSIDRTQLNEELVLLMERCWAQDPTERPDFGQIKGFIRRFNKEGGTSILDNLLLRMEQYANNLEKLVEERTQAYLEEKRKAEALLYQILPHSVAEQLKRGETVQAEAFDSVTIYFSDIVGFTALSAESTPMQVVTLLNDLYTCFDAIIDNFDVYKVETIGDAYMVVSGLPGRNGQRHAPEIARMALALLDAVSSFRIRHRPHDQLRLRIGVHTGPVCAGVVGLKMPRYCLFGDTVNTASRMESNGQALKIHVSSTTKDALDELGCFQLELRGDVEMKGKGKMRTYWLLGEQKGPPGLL
Test: Stimulation of cGMP production in NPR-B positive cells (cGMP ELISA)
Format: cell-based
Settings: FIG. 7A
Protocol: The biological function of these purified protein was assayed for their stimulation of production of cGMP, using NPR-B receptor positive cell line, NIH/3T3 and NPR-B negative cell line HEK293 cells. The determination of cGMP was assay by ELISA using commercial CNP as standard curves. […] Surface preparation. NBR-B was immobilized at different levels in three flow cells via standard amine coupling, leaving Fc 1 unmodified to serve as a reference. All surface plasmon resonance (SPR) analysis was performed on a BIAcore 3000 system using series CM5 sensor chips. Data processing and analysis were performed using BIAevaluation software. All sensorgrams were double referenced by subtracting the response on a reference flow cell and a blank sample. Human NPR-B (R&D system) was covalently attached to a CM5 chip via amine coupling. A surface density of 6600 RU was used for measurements with natriuretic peptides Sequential injections of CNP (0.5-8 nM) were performed at a flow rate of […] (300 s for each), followed by a dissociation time of 900 s. […] Kinetic parameters were calculated assuming a simple 1:1 (Langmuir) binding. […] Kinetic parameters were calculated assuming a simple 1:1 (Langmuir) binding. […] Kinetic parameters were calculated assuming a simple 1:1 (Langmuir) binding. […] Kinetic parameters were calculated assuming a simple 1:1 (Langmuir) binding. […]

AMI088: purified fusion protein Fc1-(G4S)4-CNP36 (IgG1 Fc), SEQ ID NO: 133
cGMP production stimulated by AAV vector encoded CNP or CNP-Fc: highest level of cGMP
